These are literature values, as cited in patent US7897835B2, “Expression vectors pSSA-K and pSSA-H for expression of SOD and APX in plants to provide stress tolerance” (Korea Research Institute of Bioscience and Biotechnology, priority 2004, dated 2011).

This data set relates to tobacco protoplast. Conditions: transient assay with GUS protein.

B1: SWPA2 promoter: oxidative stress inducible peroxidase promoter isolated from sweetpotato (Ipomoea batatas), SEQ. ID. No 15 (nucleic acid)
DNA: AAGCTTCCATGATCAGATCGATAATACCAAATGGTACCACCTAACTAGGTGATATATATTATGTATGTCATTATTTTAAACTGTATTACAAAGACTATTTTTTCATTAATTGGTACAAAGAAAAATTAAACAGAAAAGAAAGGAAAAAATGACTCACCACCTAGCACCTAGACACCTAGACACCAAGTACCCAAACCCTCTATTTTCAACATCTATTTTCAGATGTAAATATGAGTTGGACGAAGAAGGTGTTAGCAATTATTTGATTAATCTTGCTACGATAATTATGATCCACTCACTTAGTCATTTTTTTCAGACCAAGACAACTAGCTTGAGTTTTTTATTGTATGTGGTCGGAACGTTTTTTGTAATTAAAAAAATAAAAGTTGCATCATTATATATGGTAGATTAAGTAATTGATCAATCAACGTTTAATTTTGCATTTATCGGCAAGGTGGAGGTTCCAACTTCCAGTCGAACTTAGAGAGTCATTGGAGACCTTGACCAGTTAACTAGCGGTGTCGAAAACCTGCACAACTTGAGATTTAATTGCATACCTTTTATATATGACGCGTTTTATTTTTTTTTCCTAGAAAATAATTTGGAAGAAAATAAGAATATGTATTCTGTGAAAGCTAGGCCAAAACGAATGTCTTTTCGTCGTTTTCGTTAAAGGTTTAGATCATATTTCATCTGGTCCAACACTCAAACTTGTATAATGGACGAATTATTAGTCATTTTAGACCTACCGGCTAGCGCGACTTTTTTGTTTTCCATAAAGATTCGATAATTGCATGGCCAGATGCAAAGTTTGAAATTTAATGTTTGCCAAATCCTATCATACACCACAACACATGTCTCAGGGCCAAGTGGCACCAGCAAACATTCCTGTCATAATTAATTTTTTTAATGAGAAGGAGGAAACTCACAGCTATTACTCGAAGGTATATAATATTGAGTAAATCTTACTTTGTGATTCTAGTTGACAAAACACCGCAAGATAAACTATACTAAGTTCAAATCACCTCACCGGGTTGGCTCAGATTGGTTTTTTCAATACAAGAGGGGGTGTGAACTCCCGTGCCGACCTCTTTTGAGGGACAATAATGTACGGTCACGCCAACCTAGCTTGATTTTTTCTGACAAATATATTACTACATATATTACACGGTCAAATAATTAATCAAAAAATAAAAAAAGACCCCAATTAAAGTCCCCAACCACTCTCAAATATTCTATTTAAGGGAAACCTTAGAGGCAATTCATGCATCCTCAACCCCTTCTTCTTCATTTTCTTAATCTTACATTTTCCTTTGACCCTCGAG
modifications: Ipomoea batatas
With B1, the “promoter activity relative to CaMV 35S promoter” value is recorded as “at least 30 fold”.
